Laboratory results reported in US20220073604A1 (ARGENX BVBA, published 2022).
Substitutions are numbered along the chain they refer to. “And” between values parts separate entries of the source, which are not always exact repeats. Identical values can stand only once. Values belong to the binder of their own block, whether it stands above or below them.

What was measured:
[1] = target: IL-6 (bact-hIL-6, euk-hIL-6 and bact-cy IL-6; 'average binding' of Table 21); assay: average binding level in the off-rate screen (unit not given; n = 1)
[2] = target: T1, bacterially produced cynomolgus monkey IL-6 (cynomolgus monkey, UniProt P79341 28-212, limits assumed); assay: off-rate of Fab 111A7 variant on bact-cy IL-6 (binding kinetics, SPR presumed; n = 1)
T1 construct: also called bact-cy IL-6; HIS-cyIL-6

[3] = target: IL-6 (bact-hIL-6, euk-hIL-6 and bact-cy IL-6; 'average binding' of Table 21); assay: average binding level in the off-rate screen (unit not given; n = 3)
[4] = target: T1, bacterially produced cynomolgus monkey …; assay: off-rate of Fab 111A7 variant on bact-cy IL-6 (binding kinetics, SPR presumed; n = 3)
[5] = target: T2, human IL-6 (human, UniProt P05231 30-212); assay: cell-based or functional assay
[6] = target: IL-6 surfaces of Table 8 (Bact, euk, cyno), average; assay: SPR (Biacore), off-rate screen
[7] = target: T3, bacterially produced human IL-6 (human, UniProt P05231 30-212); assay: SPR; periplasmic fraction
T3 construct: also called bactIL-6; prokaryotic IL-6
Description: (§1) From the washing phase the off-rate (kd) was determined, while from the injection phase the on-rate (ka) was calculated using the concentration and off-rate as parameters.

[8] = target: T4, eukaryotically produced human IL-6 (human, UniProt P05231 30-212); assay: SPR; periplasmic fraction
T4 construct: also called eukIL-6; Euk IL-6
Description: as §1

[9] = target: T3, bacterially produced human IL-6; assay: SPR; periplasmic fraction; ratio bact to euk IL-6
Description: as §1

[10] = target: T2, human IL-6; assay: SPR; periplasmic fraction; average of the IL-6 channels; set-up: unit not given here
[11] = target: T5, bacterially produced human IL-6 (human, UniProt P05231 30-212); assay: SPR (Biacore), purified Fab
T5 construct: Immobilised on the Biacore chip; also called BACT IL-6 (2-1); bactIL-6

[12] = target: T6, eukaryotically produced human IL-6 (human, UniProt P05231 30-212); assay: SPR (Biacore), purified Fab
T6 construct: Immobilised on the Biacore chip; also called Euk IL-6; EUK IL-6 (3-1)

[13] = target: T3, bacterially produced human IL-6; assay: SPR; purified Fab; IL-6 coated on CM5 chip;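 further: dissociation rate taken from the wash phase, association rate fitted over the injection phase with analyte concentration and dissociation rate as inputs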
Description: as §1

[14] = target: T4, eukaryotically produced human IL-6; assay: SPR; purified Fab; IL-6 coated on CM5 chip;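 further: dissociation rate taken from the wash phase, association rate fitted over the injection phase with analyte concentration and dissociation rate as inputs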
Description: as §1

average binding [1]: 42
koff [2]: 9.46e-05 s⁻¹
B1: Fab 111A7 with the CDR3 methionine changed to C (Fab, V domains shown)
VH: EVQLLESGGGLVQPGGSLRLSCAASGFTFSSYAMSWVRQAPGKGPEWVSRISAGGGSTYYGDSVKGRFTISRDNSKNTLYLQMNSLRAEDTAVYYCANRAGWGCGDYWGQGTLVTVSS
VL: QTVVTQEPSFSVSPGGTVTLTCGLSSGSVTASNYPGWYQQTPGQAPRALIYSTNDRHSGVPDRFSGSISGNKAALTITGAQAEDEADYYCALDIGDITEFGGGTQLTVL

average binding [3]: 109
koff [4]: 0.000205 s⁻¹
B2: Fab 111A7 with the CDR3 methionine changed to G (Fab, V domains shown)
VH: B1 VH with C104G
VL: B1 VL

average binding [1]: 26
koff [2]: 0.000177 s⁻¹
B3: Fab 111A7 with the CDR3 methionine changed to W (Fab, V domains shown)
VH: B1 VH with C104W
VL: B1 VL

average binding [1]: 137
koff [2]: 0.000207 s⁻¹
B4: Fab 111A7 with the CDR3 methionine changed to N (Fab, V domains shown)
VH: B1 VH with C104N
VL: B1 VL

average binding [1]: 144
koff [2]: 0.000203 s⁻¹
B5: Fab 111A7 with the CDR3 methionine changed to F (Fab, V domains shown)
VH: B1 VH with C104F
VL: B1 VL

average binding [3]: 112
koff [4]: 0.000234 s⁻¹
B6: Fab 111A7 with the CDR3 methionine changed to D (Fab, V domains shown)
VH: B1 VH with C104D
VL: B1 VL

average binding [3]: 104
koff [4]: 0.000158 s⁻¹
B7: Fab 111A7 with the CDR3 methionine changed to Y (Fab, V domains shown)
VH: B1 VH with C104Y
VL: B1 VL

average binding [1]: 81
koff [2]: 0.00417 s⁻¹
B8: Fab 111A7 with the CDR3 methionine changed to K (Fab, V domains shown)
VH: B1 VH with C104K
VL: B1 VL

average binding [1]: 64
koff [2]: 0.000121 s⁻¹
B9: Fab 111A7 with the CDR3 methionine changed to R (Fab, V domains shown)
VH: B1 VH with C104R
VL: B1 VL

B10: 68F2 antibody (antibody, V domains shown)
VH: EVQLQESGPGLVKPSQTLSLTCTVSGGSITTRYYAWSWIRQPPGKGLEWMGVIDYDGDTYYSPSLKSRTSISWDTSKNQFSLQLSSVTPEDTAVYYCARDPDVVTGFHYDYWGQGTQVTVSS
VL: QSALTQPPLVSGTPGQTVTISCAGANNDIGTYAYVSWYQQLPGTAPKLLIYKVTTRASGIPSRFSGSKSGNTASLTISGLQSEDEADYYCASYRNFNNAVFGRGTHLTVLG
IC50, growth of IL-6-dependent 7TD1 cells with 75 pg/ml human IL-6 [5]: < 0.001 nM

B11: 133E5 (antibody, V domains shown)
VH: B10 VH with E1Q, T31S, M50I, T69V, S70T, Q83K
VL: QSALTQPPSVSGSPGQTVTISCAGANNDIGTYAYVSWYQQLPGTAPKLMIYKVTTRASGIPDRFSGSKSGNTASLTISGLQAEDEADYYCASYRNFNNAVFGRGTKLTVL
IC50, growth of IL-6-dependent 7TD1 cells with 75 pg/ml human IL-6 [5]: < 0.001 nM

Average binding (RU) [6]: 773 RU and 770 RU and 873 RU
B12: 55H1 (Fab, V domains shown)
VH: EVQLVESGGGLVQPGGSLRLSCAASGFTFSSYAMSWVRQAPGKGLEWVSRISSGGISTYYADSVKGRFTISRDNAKNTLYLQMNSLKPEDTAVYYCVRYAWGVQWAFDFWGQGTQVTVSS
VL: AQSVVTQPPSVSGSPGKTVTISCAGTSSDVGYGNYVSWYQQLPGMAPKLLIYDVSKRASGIADRFSGSKSGNTASLTISGLQSEDEADYVCASYRRGGTAVFGGGTHLTVLG

Average binding (RU) [6]: 635 RU
B13: 61H7 (Fab, V domains shown)
VH: EVQLVESGGGLVQPGGSLRLSCAASGFTFSSYRMYWVRQPPGKGLEWVSAISAGGGSTYYGDSVKGRFTISRDNAKNTVYLQMNSLKPEDTAVYYCANRAGWGMGDYWGQGTQVTVSS
VL: QTVVTQEPSLSVSPGGTVTLTCGLSSGSVTASNYPGWFQQTPGQAPRALIYSTNDRHSGVPSRFSGSISGNKAALTITGAQPEDEADYYCALDIGDITEFGGGTHLTVLG

koff [7]: 0.000112 s⁻¹
koff [8]: 7.52e-05 s⁻¹
ratio bact/euk [9]: 0.96
average binding [10]: 46
B14: Fab 24G3 (Fab, V domains shown)
VH: QLQVVESGGGLVQPGSSLRLSCGASGFTFSSHRMYWVRQPPGKGLEWVSAISSSGVSTYYADSVKGRFTISRDNAKNTVYLQMNSLKPEDTALYYCKRRTWYGGEYDYWGQGTQVTVSS
VL: B13 VL
notes: Fab; also called 28g12(24G3)

B15: 61H7 antibody (antibody, V domains shown)
VH: B13 VH
VL: B13 VL
IC50, growth of IL-6-dependent 7TD1 cells with 75 pg/ml human IL-6 [5]: < 0.001 nM

Average binding (RU) [6]: 597 RU
Kd [11]: 0.16 nM
koff [11]: 5.7e-05 s⁻¹
kon [11]: 350000 M⁻¹ s⁻¹
Kd [12]: 0.2 nM
koff [12]: 6.6e-05 s⁻¹
kon [12]: 330000 M⁻¹ s⁻¹
B16: 61B7 (Fab, V domains shown)
VH: B1 VH with V2L, L5V, A53S, T58A, G61A, S75A, R87K, A88P, C104M, L113Q
VL: B13 VL
notes: Fab

Kd [11]: 0.5 nM
koff [11]: 0.0001 s⁻¹
kon [11]: 210000 M⁻¹ s⁻¹
Kd [12]: 0.41 nM
koff [12]: 0.0001 s⁻¹
kon [12]: 250000 M⁻¹ s⁻¹
B17: 24D10 (Fab, V domains shown)
VH: QLQVVESGGGLVQPGGSLRLSCAASGFTFSSYAMSWVRQAPGKGPEWVSRISSGGGSTSYADSVKGRFTISRDNAKNTLYLQMNSLKPEDTAVYYCANRAGWGMGDYWGQGTQVTVSS
VL: B13 VL
notes: Purified Fab

Kd [11]: 0.017 nM
koff [11]: 2e-06 s⁻¹
kon [11]: 120000 M⁻¹ s⁻¹
Kd [12]: 0.45 nM
koff [12]: 5.5e-05 s⁻¹
kon [12]: 120000 M⁻¹ s⁻¹
B18: 61H7 (Fab, V domains shown)
VH: B13 VH
VL: B13 VL
notes: Fab; also called Fab 61H7

koff [7]: 8.42e-05 s⁻¹
koff [8]: 7.6e-05 s⁻¹
Kd [13]: 0.22 nM
koff [13]: 4.8e-05 s⁻¹
Kd [14]: 0.59 nM
koff [14]: 0.00011 s⁻¹
ratio bact/euk [9]: 1.2
average binding [10]: 286
B19: Fab 24A3 (Fab, V domains shown)
VH: QVQVQESGGGLVQPGGSLRLSCAASGFTFSNYAMSWVRQAPGKGLEWVSGISFRGGMISYVDSVKGRFTISRDNAKNTLYLQMNSLKPEDTAVYYCAKNSGSSRSNALDAWGQGTLVTVSS
VL: LNFMLTQPPSVSGSPGQKFTIRCTGSFRSDSYVNWYQQLPGTAPKLLINYDDRRVSGVPSRFSGSKSGNSASLTIDGLQAEDEAEYYCSFWDHTFGGHVFGGGTKLTVLG
notes: Fab; also called 28f10(24A3)

koff [7]: 7.71e-05 s⁻¹
koff [8]: 3.5e-05 s⁻¹
ratio bact/euk [9]: 1
average binding [10]: 43
B20: Fab 28B6 (Fab, V domains shown)
VH: QVQLVESGGGLVQPGGSLRLSCAASGFTFSNYYMTWVRQAPGKGLEWVSSIYSFSGDTAYADSVKGRFTISRDNAKNTLYLQMNSLKSEDTAVYYCTRNLGGVVVTTNGYDYWGQGTQVTVSS
VL: DIQLTQSPSSLSASLGDRVTITCQASQSISTELSWYQQKPGQTPKLLIYGASRLQTGVPARFSGSGSGTSFTLTISGLEAEDLATYYCLQDYSWPYSFGSGTRL
notes: Fab; also called 28f3(28B6)
